Data published in US20240400657A1 (MorphoSys, published 2024).
Residue numbers refer to the chain shown, from its start.

T1: human C5aR_NT-bio peptide (human, biotin tag (position not given))
T1 construct: Chemically synthesized linear peptide (Genscript); also called human C5aR N-terminal peptide; human C5aR peptide
T1 peptide: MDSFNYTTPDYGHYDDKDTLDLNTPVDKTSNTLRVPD

T2: C5aR expressed on purified human neutrophils (human, UniProt P21730 1-350)
T2 sequence (looked up): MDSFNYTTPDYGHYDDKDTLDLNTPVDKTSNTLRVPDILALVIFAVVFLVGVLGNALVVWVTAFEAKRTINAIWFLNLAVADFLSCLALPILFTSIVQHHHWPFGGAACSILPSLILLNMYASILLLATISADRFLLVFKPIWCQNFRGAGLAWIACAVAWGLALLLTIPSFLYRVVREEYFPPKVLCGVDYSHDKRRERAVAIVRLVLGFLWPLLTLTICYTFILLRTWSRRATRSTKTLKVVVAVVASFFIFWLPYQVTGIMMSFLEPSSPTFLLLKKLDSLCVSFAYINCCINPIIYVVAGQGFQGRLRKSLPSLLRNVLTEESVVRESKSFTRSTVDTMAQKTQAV

T3: full length cynomolgus C5aR stably expressed on CHO Flp-In cells (cynomolgus monkey (Macaca fascicularis))
T3 chain: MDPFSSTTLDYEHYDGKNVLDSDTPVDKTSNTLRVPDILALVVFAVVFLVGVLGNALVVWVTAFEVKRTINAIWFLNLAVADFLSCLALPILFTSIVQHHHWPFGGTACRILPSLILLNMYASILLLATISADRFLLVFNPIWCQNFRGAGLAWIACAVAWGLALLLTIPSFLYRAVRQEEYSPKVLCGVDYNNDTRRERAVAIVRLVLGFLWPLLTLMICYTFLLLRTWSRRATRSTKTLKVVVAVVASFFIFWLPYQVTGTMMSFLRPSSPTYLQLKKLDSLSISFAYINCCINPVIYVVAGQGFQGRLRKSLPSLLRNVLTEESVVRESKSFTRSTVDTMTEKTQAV

T4: full length human C5aR stably expressed on CHO Flp-In cells (human, UniProt P21730 1-350)
T4 construct: also called human C5aR expressed on CHO cells
T4 sequence: T2 sequence (looked up)

B1: MAB #2 (antibody, human IgG1, lambda)
heavy: EVQLVESGGGLVKPGGSLRLSCAASGFTFSSYAMHWVRQAPGKGLEWVGRIKSVAQGGTTDYAAHVKGRFTISRDDSKNTLYLQMNSLKTEDTAVYYCARVSHSTFDVWGQGTLVTVSSASTKGPSVFPLAPSSKSTSGGTAALGCLVKDYFPEPVTVSWNSGALTSGVHTFPAVLQSSGLYSLSSVVTVPSSSLGTQTYICNVNHKPSNTKVDKRVEPKSCDKTHTCPPCPAPEAEGAPSVFLFPPKPKDTLMISRTPEVTCVVVDVSHEDPEVKFNWYVDGVEVHNAKTKPREEQYNSTYRVVSVLTVLHQDWLNGKEYKCKVSNKALPSSIEKTISKAKGQPREPQVYTLPPSREEMTKNQVSLTCLVKGFYPSDIAVEWESNGQPENNYKTTPPVLDSDGSFFLYSKLTVDKSRWQQGNVFSCSVMHEALHNHYTQKSLSLSPGK
light: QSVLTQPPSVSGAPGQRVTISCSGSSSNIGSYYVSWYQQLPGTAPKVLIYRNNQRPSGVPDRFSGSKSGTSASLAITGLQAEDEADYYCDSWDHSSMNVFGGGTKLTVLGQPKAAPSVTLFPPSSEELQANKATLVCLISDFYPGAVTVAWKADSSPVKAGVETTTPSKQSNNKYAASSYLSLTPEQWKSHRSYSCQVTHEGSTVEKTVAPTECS
notes: lambda 1 light chain
B2: MAB #1 (antibody, human IgG1, lambda)
heavy: B1 heavy with V54K, H103F
light: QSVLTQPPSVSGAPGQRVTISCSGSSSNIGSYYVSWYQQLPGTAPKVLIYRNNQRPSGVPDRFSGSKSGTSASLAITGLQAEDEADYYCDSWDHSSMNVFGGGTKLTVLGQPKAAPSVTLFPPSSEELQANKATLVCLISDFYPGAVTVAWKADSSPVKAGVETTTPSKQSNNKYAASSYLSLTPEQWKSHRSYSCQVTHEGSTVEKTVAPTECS
notes: lambda 1 light chain, VH3-15 framework

Experiments:
[1] = target: T5, Cynomolgus FcRn p51 [1-297]_AviHis/p14 biotinylated (cynomolgus monkey, UniProt Q8SPV9 24-298; Q6T672 21-119, biotinylated in vitro with BirA (Avi tag)); assay: BLI (Octet HTX), biotinylated FcRn on SA sensors, IgG titrated, steady state fit, apparent KD, pH 6.0; * deviation from fit model; pH 6.0
T5 construct: Heterodimer; UniProt Q8SPV9 (p51)
From the text: (§1) 0.5 nm of biotinylated human, cynomolgus, mouse and rat FcRn were captured on streptavidin (SA) sensors (FortéBIO, Pall Life Sciences). […] All sensorgrams were fitted using Data Analysis Software 10.0 (FortéBIO, Pall Life Sciences) to determine the apparent affinity and the data was fitted with a steady state model.

[2] = target: T1, human C5aR_NT-bio peptide; assay: BLI (Octet), apparent (bivalent)
[3] = target: T6, HIS6-mouse C5aR-HV1B1-GAG (mouse); assay: ELISA on coated VLPs, IgG titration
T6 construct: negative control; also called murine C5aR on VLPs; mouse C5aR expressed on virus-like-particles

[4] = target: T2, C5aR expressed on purified human …; assay: cell-based or functional assay
[5] = target: T2, C5aR expressed on purified human …; assay: cell-based or functional assay; remark: listed apart in the source
[6] = target: T5, Cynomolgus FcRn p51 [1-297]_AviHis/p14 …; assay: BLI (Octet HTX), biotinylated FcRn on SA sensors, IgG titrated, steady state fit, apparent KD, pH 6.0; * deviation from fit model
From the text: as §1

[7] = target: T3, full length cynomolgus C5aR stably …; assay: KinExA, MAB #1 as analyte, Flp-In CHO cells as titrant, apparent (bivalent) KD, n-curve analysis
Method: (§2) Apparent KD determination on C5aR-expressing cells was performed at RT with a KinExA® 3200 instrument (Sapidyne Instruments). PBS (Gibco), supplemented with BSA (1 mg/mL) and 0.02% (v/v) NaN₃ was used as assay buffer. […] After equilibration, the samples were centrifuged and the supernatants were used for analysis. […] The apparent KD was obtained using KinExA® software and by “n-curve analysis,” which fits all of the given curves to a single KD value simultaneously.

[8] = target: T4, full length human C5aR stably expressed …; assay: as above
Method: as §2

Row | Binder | Kd [1] | fold weaker binding affinity compared to MAB #1 [2] | binding result [3] | CD11b assay, granulocytes, 15 nM C5a, 20 minutes of IgG incubation: IC50 [4] | CD11b assay, granulocytes, 15 nM C5a, 300 minutes of IgG incubation: IC50 [4] | CD11b assay, granulocytes: x-fold improvement (20 min. vs 300 min.) [4] | CD11b assay, monocytes, 15 nM C5a, 20 minutes of IgG incubation: IC50 [4] | CD11b assay, monocytes, 15 nM C5a, 300 minutes of IgG incubation: IC50 [4] | CD11b assay, monocytes: x-fold improvement (20 min. vs 300 min.) [4] | Inhibition of CD11b expression, granulocytes in whole blood, 15 nM C5a: IC50 [5] | Inhibition of CD11b expression, monocytes in whole blood, 15 nM C5a: IC50 [5] | Kd [6] | Kd [7] | Kd [8]
1 | B1 | 30 nM | ~10 fold | no binding | – | – | – | – | – | – | – | – | – | – | –
2 | B2 | – | – | – | 11 nM | 2.3 nM | 4.8 fold | 4 nM | 0.7 nM | 5.7 fold | 9.8 nM | 4.2 nM | 6.8 nM | 2.98 nM | 0.13 nM
